Assay results taken from the supplement of paper PMC10567573.

B1: TEKT4 (parent)
chain: SEVEELNMSLTALREKLLEAEQSL

Variants of: B1
Assay: protein stability index of a GFP-peptide fusion (GPS, HEK-293T) (PSI 1-6); higher = more stable
Conditions: c terminus: a fixed tail appended
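Note: lentivirally expressed fusions sorted by FACS into six bins by GFP to DsRed ratio, PSI derived from sequencing read proportions per bin multiplied by bin number.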

Variant | protein stability index
SEVEELNMSFTALREKLLEAEQSL | 3.23
SEVEELNMSGTALREKLLEAEQSL | 3.74
SEVEELNMSHTALREKLLEAEQSL | 3.26
SEVEELNMSITALREKLLEAEQSL | 1.9
SEVEELNMSKTALREKLLEAEQSL | 3.73
SEVEELNMSMTALREKLLEAEQSL | 2.64
SEVEELNMSNTALREKLLEAEQSL | 4.09
SEVEELNMSQTALREKLLEAEQSL | 4.14
SEVEELNMSRTALREKLLEAEQSL | 3.97
SEVEELNMSSTALREKLLEAEQSL | 3.64
SEVEELNMSTTALREKLLEAEQSL | 3.29
SEVEELNMSVTALREKLLEAEQSL | 2.25
SEVEELNMSWTALREKLLEAEQSL | 2.68
SEVEELNMSYTALREKLLEAEQSL | 2.93
SEVEELNMSLAALREKLLEAEQSL | 3.49
SEVEELNMSLCALREKLLEAEQSL | 2.82
SEVEELNMSLDALREKLLEAEQSL | 4.13
SEVEELNMSLEALREKLLEAEQSL | 4.1
SEVEELNMSLFALREKLLEAEQSL | 1.76
SEVEELNMSLGALREKLLEAEQSL | 3.02
SEVEELNMSLHALREKLLEAEQSL | 2.5
SEVEELNMSLIALREKLLEAEQSL | 2.35
SEVEELNMSLKALREKLLEAEQSL | 3.15
SEVEELNMSLLALREKLLEAEQSL | 2.8

Variant | protein stability index
SEVEELNMSLMALREKLLEAEQSL | 2.51
SEVEELNMSLNALREKLLEAEQSL | 3.02
SEVEELNMSLPALREKLLEAEQSL | 3.31
SEVEELNMSLQALREKLLEAEQSL | 3.65
SEVEELNMSLRALREKLLEAEQSL | 3.1
SEVEELNMSLSALREKLLEAEQSL | 2.92
SEVEELNMSLVALREKLLEAEQSL | 2.36
SEVEELNMSLWALREKLLEAEQSL | 2.09
SEVEELNMSLYALREKLLEAEQSL | 1.81
SEVEELNMSLTCLREKLLEAEQSL | 2.15
SEVEELNMSLTDLREKLLEAEQSL | 3.48
SEVEELNMSLTELREKLLEAEQSL | 2.38
SEVEELNMSLTFLREKLLEAEQSL | 2.37
SEVEELNMSLTGLREKLLEAEQSL | 2.56
SEVEELNMSLTHLREKLLEAEQSL | 2.76
SEVEELNMSLTILREKLLEAEQSL | 2.36
SEVEELNMSLTKLREKLLEAEQSL | 3.17
SEVEELNMSLTLLREKLLEAEQSL | 2.27
SEVEELNMSLTMLREKLLEAEQSL | 1.9
SEVEELNMSLTNLREKLLEAEQSL | 1.73
SEVEELNMSLTPLREKLLEAEQSL | 4.15
SEVEELNMSLTQLREKLLEAEQSL | 2.29
SEVEELNMSLTRLREKLLEAEQSL | 2.54
SEVEELNMSLTSLREKLLEAEQSL | 2.46

Variant | protein stability index
SEVEELNMSLTTLREKLLEAEQSL | 2.3
SEVEELNMSLTVLREKLLEAEQSL | 3.06
SEVEELNMSLTWLREKLLEAEQSL | 2.56
SEVEELNMSLTYLREKLLEAEQSL | 2.47
SEVEELNMSLTAAREKLLEAEQSL | 4.86
SEVEELNMSLTACREKLLEAEQSL | 4.68
SEVEELNMSLTADREKLLEAEQSL | 5.55
SEVEELNMSLTAEREKLLEAEQSL | 5.42
SEVEELNMSLTAFREKLLEAEQSL | 4.49
SEVEELNMSLTAGREKLLEAEQSL | 5.15
SEVEELNMSLTAHREKLLEAEQSL | 5.21
SEVEELNMSLTAIREKLLEAEQSL | 4.14
SEVEELNMSLTAKREKLLEAEQSL | 4.76
SEVEELNMSLTAMREKLLEAEQSL | 3.32
SEVEELNMSLTANREKLLEAEQSL | 4.87
SEVEELNMSLTAPREKLLEAEQSL | 4.47
SEVEELNMSLTAQREKLLEAEQSL | 4.47
SEVEELNMSLTARREKLLEAEQSL | 4.83
SEVEELNMSLTASREKLLEAEQSL | 4.8
SEVEELNMSLTATREKLLEAEQSL | 5.4
SEVEELNMSLTAVREKLLEAEQSL | 4.55
SEVEELNMSLTAWREKLLEAEQSL | 3.18
SEVEELNMSLTAYREKLLEAEQSL | 4.34
SEVEELNMSLTALAEKLLEAEQSL | 3.48

Variant | protein stability index
SEVEELNMSLTALCEKLLEAEQSL | 3.37
SEVEELNMSLTALDEKLLEAEQSL | 5.52
SEVEELNMSLTALEEKLLEAEQSL | 4.63
SEVEELNMSLTALFEKLLEAEQSL | 2.42
SEVEELNMSLTALGEKLLEAEQSL | 4.19
SEVEELNMSLTALHEKLLEAEQSL | 3.87
SEVEELNMSLTALIEKLLEAEQSL | 2.83
SEVEELNMSLTALKEKLLEAEQSL | 3.94
SEVEELNMSLTALLEKLLEAEQSL | 2.05
SEVEELNMSLTALMEKLLEAEQSL | 2.02
SEVEELNMSLTALNEKLLEAEQSL | 4.79
SEVEELNMSLTALPEKLLEAEQSL | 5.3
SEVEELNMSLTALQEKLLEAEQSL | 3.99
SEVEELNMSLTALSEKLLEAEQSL | 4.41
SEVEELNMSLTALTEKLLEAEQSL | 3.62
SEVEELNMSLTALVEKLLEAEQSL | 2.07
SEVEELNMSLTALWEKLLEAEQSL | 2.58
SEVEELNMSLTALYEKLLEAEQSL | 2.46
SEVEELNMSLTALRAKLLEAEQSL | 2.2
SEVEELNMSLTALRCKLLEAEQSL | 2.24
SEVEELNMSLTALRDKLLEAEQSL | 2.97
SEVEELNMSLTALRFKLLEAEQSL | 2.27
SEVEELNMSLTALRGKLLEAEQSL | 3.04
SEVEELNMSLTALRHKLLEAEQSL | 2.94

Variant | protein stability index
SEVEELNMSLTALRIKLLEAEQSL | 2.62
SEVEELNMSLTALRKKLLEAEQSL | 3.38
SEVEELNMSLTALRLKLLEAEQSL | 2.1
SEVEELNMSLTALRMKLLEAEQSL | 2.18
SEVEELNMSLTALRNKLLEAEQSL | 2.54
SEVEELNMSLTALRPKLLEAEQSL | 3.76
SEVEELNMSLTALRQKLLEAEQSL | 2.52
SEVEELNMSLTALRRKLLEAEQSL | 3.11
SEVEELNMSLTALRSKLLEAEQSL | 2.27
SEVEELNMSLTALRTKLLEAEQSL | 2.44
SEVEELNMSLTALRVKLLEAEQSL | 2.3
SEVEELNMSLTALRWKLLEAEQSL | 1.59
SEVEELNMSLTALRYKLLEAEQSL | 2.15
SEVEELNMSLTALREALLEAEQSL | 3.42
SEVEELNMSLTALRECLLEAEQSL | 3.24
SEVEELNMSLTALREDLLEAEQSL | 4.25
SEVEELNMSLTALREELLEAEQSL | 3.19
SEVEELNMSLTALREFLLEAEQSL | 1.99
SEVEELNMSLTALREGLLEAEQSL | 3.58
SEVEELNMSLTALREHLLEAEQSL | 2.83
SEVEELNMSLTALREILLEAEQSL | 2.92
SEVEELNMSLTALRELLLEAEQSL | 2.85
SEVEELNMSLTALREMLLEAEQSL | 2.26
SEVEELNMSLTALRENLLEAEQSL | 1.72

Variant | protein stability index
SEVEELNMSLTALREPLLEAEQSL | 5.38
SEVEELNMSLTALREQLLEAEQSL | 2.83
SEVEELNMSLTALRERLLEAEQSL | 3.06
SEVEELNMSLTALRESLLEAEQSL | 3.74
SEVEELNMSLTALRETLLEAEQSL | 2.83
SEVEELNMSLTALREVLLEAEQSL | 3.11
SEVEELNMSLTALREWLLEAEQSL | 3.27
SEVEELNMSLTALREYLLEAEQSL | 2.67
SEVEELNMSLTALREKALEAEQSL | 5.53
SEVEELNMSLTALREKCLEAEQSL | 4.21
SEVEELNMSLTALREKDLEAEQSL | 5.26
SEVEELNMSLTALREKELEAEQSL | 5.46
SEVEELNMSLTALREKFLEAEQSL | 3.69
SEVEELNMSLTALREKGLEAEQSL | 5.38
SEVEELNMSLTALREKHLEAEQSL | 5.01
SEVEELNMSLTALREKILEAEQSL | 4.28
SEVEELNMSLTALREKKLEAEQSL | 5.36
SEVEELNMSLTALREKMLEAEQSL | 2.51
SEVEELNMSLTALREKNLEAEQSL | 4.89
SEVEELNMSLTALREKPLEAEQSL | 5.42
SEVEELNMSLTALREKQLEAEQSL | 4.98
SEVEELNMSLTALREKRLEAEQSL | 3.69
SEVEELNMSLTALREKSLEAEQSL | 4.9
SEVEELNMSLTALREKTLEAEQSL | 5.16

Variant | protein stability index
SEVEELNMSLTALREKVLEAEQSL | 4.45
SEVEELNMSLTALREKWLEAEQSL | 3.41
SEVEELNMSLTALREKYLEAEQSL | 4.05
SEVEELNMSLTALREKLCEAEQSL | 4.07
SEVEELNMSLTALREKLDEAEQSL | 5.37
SEVEELNMSLTALREKLEEAEQSL | 5.08
SEVEELNMSLTALREKLFEAEQSL | 3.32
SEVEELNMSLTALREKLGEAEQSL | 4.45
SEVEELNMSLTALREKLHEAEQSL | 3.84
SEVEELNMSLTALREKLIEAEQSL | 2.39
SEVEELNMSLTALREKLKEAEQSL | 4.74
SEVEELNMSLTALREKLMEAEQSL | 2.71
SEVEELNMSLTALREKLNEAEQSL | 4.11
SEVEELNMSLTALREKLPEAEQSL | 5.43
SEVEELNMSLTALREKLQEAEQSL | 4.23
SEVEELNMSLTALREKLREAEQSL | 3.67
SEVEELNMSLTALREKLSEAEQSL | 4.65
SEVEELNMSLTALREKLTEAEQSL | 4.54
SEVEELNMSLTALREKLVEAEQSL | 3.94
SEVEELNMSLTALREKLWEAEQSL | 2.86
SEVEELNMSLTALREKLYEAEQSL | 3.92
SEVEELNMSLTALREKLLAAEQSL | 2.69
SEVEELNMSLTALREKLLCAEQSL | 3.04
SEVEELNMSLTALREKLLDAEQSL | 3.49

Variant | protein stability index
SEVEELNMSLTALREKLLFAEQSL | 2.24
SEVEELNMSLTALREKLLGAEQSL | 3.95
SEVEELNMSLTALREKLLHAEQSL | 3.26
SEVEELNMSLTALREKLLIAEQSL | 2.31
SEVEELNMSLTALREKLLKAEQSL | 3.97
SEVEELNMSLTALREKLLLAEQSL | 2.39
SEVEELNMSLTALREKLLMAEQSL | 2.92
SEVEELNMSLTALREKLLNAEQSL | 3.71
SEVEELNMSLTALREKLLPAEQSL | 4.07
SEVEELNMSLTALREKLLQAEQSL | 2.36
SEVEELNMSLTALREKLLRAEQSL | 2.78
SEVEELNMSLTALREKLLSAEQSL | 3.41
SEVEELNMSLTALREKLLTAEQSL | 3.6
SEVEELNMSLTALREKLLVAEQSL | 3.66
SEVEELNMSLTALREKLLWAEQSL | 2.26
SEVEELNMSLTALREKLLYAEQSL | 2.62
SEVEELNMSLTALREKLLECEQSL | 4
SEVEELNMSLTALREKLLEDEQSL | 4.72
SEVEELNMSLTALREKLLEEEQSL | 5.04
SEVEELNMSLTALREKLLEFEQSL | 3.79
